Publication PMC9852558 (The Journal of Biological Chemistry, 2022)

B1: clone VM34 (VHH)
VHH: QLQLVESGGGSVQAGGSLRLSCAASRSLSRFNVWTWYRQAPVKQRELVASITKSGDTNYAESVKGRFIISRDDDKNTVYLQMNNLKSEDTGIYYCAGSYYSGSYLYPSPGGFSVWGQGTQVTVSS
B2: clone VM35 (VHH)
VHH: QVQLVESGGGLVQAGGSLRLSCAVPGSIFRFNTMGWYRQPPGKQRELVAQMSRGGITKYGDSVKGRFTITRDNAKNTVHLQMNSLKPEDTAVYYCAGSYYSGSYYYPSPQGFSVWGQGTQVTVSP

Key:
Experiment in all cases: SPR
FGFR2 (IIIb) = FGFR2 (IIIb) (Homo sapiens (assumed), UniProt P21802-3)
FGFR3 (IIIb) = FGFR3 (IIIb) (Homo sapiens (assumed), UniProt P22607-2)
FGFR4 = FGFR4 (Homo sapiens (assumed), UniProt P22455)
Sequence of FGFR4 (P22455 22-802): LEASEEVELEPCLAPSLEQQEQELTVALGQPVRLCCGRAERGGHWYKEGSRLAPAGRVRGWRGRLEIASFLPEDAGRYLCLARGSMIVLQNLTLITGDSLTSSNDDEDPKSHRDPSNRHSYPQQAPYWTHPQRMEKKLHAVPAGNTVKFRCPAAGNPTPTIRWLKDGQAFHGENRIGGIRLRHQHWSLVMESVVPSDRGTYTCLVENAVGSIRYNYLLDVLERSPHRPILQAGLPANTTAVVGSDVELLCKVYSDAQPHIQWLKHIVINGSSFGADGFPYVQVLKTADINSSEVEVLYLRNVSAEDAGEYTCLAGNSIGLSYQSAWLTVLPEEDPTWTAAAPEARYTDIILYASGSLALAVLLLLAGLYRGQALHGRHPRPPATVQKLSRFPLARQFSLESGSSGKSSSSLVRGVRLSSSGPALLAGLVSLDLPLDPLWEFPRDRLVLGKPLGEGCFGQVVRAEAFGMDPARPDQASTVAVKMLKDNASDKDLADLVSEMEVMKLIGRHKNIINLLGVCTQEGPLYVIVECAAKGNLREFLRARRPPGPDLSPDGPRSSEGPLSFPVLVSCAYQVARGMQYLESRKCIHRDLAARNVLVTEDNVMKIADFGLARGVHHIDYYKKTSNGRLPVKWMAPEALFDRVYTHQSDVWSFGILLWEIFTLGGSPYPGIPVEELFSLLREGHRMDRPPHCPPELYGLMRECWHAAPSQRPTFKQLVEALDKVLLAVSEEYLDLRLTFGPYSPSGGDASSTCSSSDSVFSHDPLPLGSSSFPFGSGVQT

FGFR1β (IIIc)/Fc = FGFR1β (IIIc)/Fc (Homo sapiens, UniProt P11362, strain, biotinylated)
FGFR1 (IIIb) = FGFR1 (IIIb) (Homo sapiens, FGFR1 splice form IIIb, UniProt P11362, strain)
Sequence of FGFR1 (IIIb) (P11362 whole entry, looked up, change not shown, canonical isoform): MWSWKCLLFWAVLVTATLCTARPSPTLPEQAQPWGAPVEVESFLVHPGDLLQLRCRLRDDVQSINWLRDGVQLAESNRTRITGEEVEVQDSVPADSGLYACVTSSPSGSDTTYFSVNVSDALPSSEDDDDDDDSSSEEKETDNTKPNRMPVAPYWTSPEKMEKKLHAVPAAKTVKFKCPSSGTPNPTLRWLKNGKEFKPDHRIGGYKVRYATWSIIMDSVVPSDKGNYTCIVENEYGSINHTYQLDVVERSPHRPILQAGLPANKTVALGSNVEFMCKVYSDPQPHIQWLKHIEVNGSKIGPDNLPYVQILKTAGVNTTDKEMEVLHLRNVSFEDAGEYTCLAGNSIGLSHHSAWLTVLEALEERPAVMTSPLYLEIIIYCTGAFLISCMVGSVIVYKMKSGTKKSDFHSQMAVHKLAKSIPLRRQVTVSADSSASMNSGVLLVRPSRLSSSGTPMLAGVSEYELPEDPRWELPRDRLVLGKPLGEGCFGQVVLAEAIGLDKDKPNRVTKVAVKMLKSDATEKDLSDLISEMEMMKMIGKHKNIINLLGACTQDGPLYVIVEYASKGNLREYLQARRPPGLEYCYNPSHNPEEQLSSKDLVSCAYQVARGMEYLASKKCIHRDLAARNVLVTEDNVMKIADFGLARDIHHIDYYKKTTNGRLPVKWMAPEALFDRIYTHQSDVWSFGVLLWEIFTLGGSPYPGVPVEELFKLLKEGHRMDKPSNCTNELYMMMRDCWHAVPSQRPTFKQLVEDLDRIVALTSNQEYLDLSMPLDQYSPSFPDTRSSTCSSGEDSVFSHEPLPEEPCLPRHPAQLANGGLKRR

| Binder | binding result (FGFR2 (IIIb)) | binding result (FGFR3 (IIIb)) | Kd (FGFR4) [nM] | koff (FGFR4) [s⁻¹] | kon (FGFR4) [M⁻¹ s⁻¹] | Kd (FGFR1β (IIIc)/Fc) [nM] | koff (FGFR1β (IIIc)/Fc) [s⁻¹] | kon (FGFR1β (IIIc)/Fc) [M⁻¹ s⁻¹] | Kd (FGFR1 (IIIb)) [nM] | koff (FGFR1 (IIIb)) [s⁻¹] | kon (FGFR1 (IIIb)) [M⁻¹ s⁻¹] |
| --- | --- | --- | --- | --- | --- | --- | --- | --- | --- | --- | --- |
| B1 | no binding | no binding | 22.2 | 0.0527 | 2.37e+06 | 1.74 | 0.00142 | 819000 | 92.8 | 0.0254 | 274000 |
| B2 | – | – | – | – | – | 1.02 | 0.00114 | 1.11e+06 | – | – | – |
